In assay [1] the target is T1, NGF-6xHis-biotin (human, UniProt P01138, biotin).
T1 construct: nerve growth factor (NGF), human; source: HEK293, transient transfection (pCAT1.0 vector)
Briefly: ELISA; blocking ELISA: TrkA-Fc (2 ug/mL) coated at 4 °C overnight; threefold dilutions of antibody 1 h at room temperature, then NGF-6xHis-biotin (0.5 ug/mL) 30 min; HRP-streptavidin, TMB. Particulars: both partners purified. A general note: ELISA stands for enzyme-linked immunosorbent assay.

Assay [2] addresses T2, 6xHis-tagged human NGF (nerve growth factor) (Homo sapiens, UniProt P01138).
T2 construct: nerve growth factor (NGF), human; also called NGF-6xHis; human NGF-6xHis; source: HEK293, transient transfection (pCAT1.0 vector)
Description: ELISA; NGF-6xHis (2 ug/mL) coated at 4 °C overnight; antibodies in threefold series from 100 nM, 1 h; detected with HRP goat anti-human IgG (H + L), TMB, OD450. The conditions noted are these: both partners purified.

T1 sequence (P01138 122-241): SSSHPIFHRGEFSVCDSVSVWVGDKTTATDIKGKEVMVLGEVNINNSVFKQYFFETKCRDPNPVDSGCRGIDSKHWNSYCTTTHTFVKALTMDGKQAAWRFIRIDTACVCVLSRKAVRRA
T2 sequence (P01138 19-241): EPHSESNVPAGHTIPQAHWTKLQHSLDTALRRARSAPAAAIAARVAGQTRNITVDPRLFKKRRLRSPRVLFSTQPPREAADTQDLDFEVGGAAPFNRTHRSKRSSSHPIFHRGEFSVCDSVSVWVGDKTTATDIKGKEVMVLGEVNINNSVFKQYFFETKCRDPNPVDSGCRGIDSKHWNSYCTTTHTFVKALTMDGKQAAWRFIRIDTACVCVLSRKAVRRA

B1: tanezumab (antibody, V domains shown)
VH: QVQLQESGPGLVKPSETLSLTCTVSGFSLIGYDLNWIRQPPGKGLEWIGIIWGDGTTDYNSAVKSRVTISKDTSKNQFSLKLSSVTAADTAVYYCARGGYWYATSYYFDYWGQGTLVTVSS
VL: DIQMTQSPSSLSASVGDRVTITCRASQSISNNLNWYQQKPGKAPKLLIYYTSRFHSGVPSRFSGSGSGTDFTFTISSLQPEDIATYYCQQEHTLPYTFGQGTKLEIK
notes: Whole antibody, held on Protein A sensors
Broadly, the IC50 is the concentration that gives 50% inhibition. Lower therefore signals greater potency in that assay. A word on the EC50: it is the concentration at which the effect is half-maximal. The molecule B1 yielded an IC50 in assay [1] of 1.67 nM. Moreover, in assay [2], the EC50 is 0.00934 nM.

These data come from PMC9249326, “Analgesic effects of nerve growth factor‐directed monoclonal antibody on diabetic neuralgia in an animal model” (FEBS Open Bio, 2022).
